# Patent publication US20080070264A1, “Intracellular Signaling-Induced Ret-Independent Gdnf Receptor-Effected Morphological Changes” (JPMORGAN CHASE BANK N.A., priority 2003, published 2008)
# B1: GDNF: recombinant glial cell line-derived neurotrophic factor from Cephalon Inc. (baculovirus-infected insect cells) or R&D Systems, Inc. (mouse myeloma NSO) (protein, UniProt P39905 78-211, looked up)
# Glial cell line-derived …: SPDKQMAVLPRRERNRQAAAANPENSRGKGRRGQRGKNRGCVLTAIHLNVTDLGLGYETKEELIFRYCSGSCDAAETTYDKILKNLSRNRRLVSDKVGQACCRPIAFDDDLSFLDDNLVYHILRKHSAKRCGCI
# Columns and labels:
# [1] = tested on: RET/GFRα1-expressing MDCK cells; experiment: Boyden chamber cell migration and chemotaxis assay; format: cell-based, dog
# Method: (§1) FIG. 3A: In Boyden chamber chemotaxis assays, mock-transfected, GFRα1-expressing and RET/GFRα1-expressing cells were exposed to GDNF, and wild-type MDCK to HGF. The number of cells was counted as described in Materials and Methods. +/+=GDNF at 100 ng/ml or HGF at 50 ng/ml was added to both chambers to assay chemokinesis. Each result represents the mean±SEM (n=3). For each case, p<0.001.
# (§2) 5×10^4 MDCK cells (GFRα1-, RET/GFRα1-expressing and mock transfected) were suspended in 300 µl of MEM with 10% FCS and seeded into 24-well cell culture inserts with the filters (Boyden chambers), pore size 8 μm (Falcon). The assay was done as described (Tang et al., 1998). Briefly, GDNF or HGF was added to the upper, or both the upper and lower chambers at the marked concentrations. After 48 h incubation, non-migrated cells on the upper surface of the filters were scrapped. Membranes with the cells on the lower surface were washed with PBS, fixed by 3% glutaraldehyde in PBS, stained with May-Grünwald Giemsa (MGG) solution, dehydrated and mounted on the slides. Cells in eight fields of each membrane were counted under the light microscope (Magnification=100×). The average and standard error of the mean were calculated. Statistical significance of the differences was estimated by t-test.
# (§3) Guided migration of cells towards a chemoattractant is referred to as chemotaxis, whereas enhanced cellular motility is called chemokinesis. Chemotaxis can be tested in the Boyden dual chamber assay by adding the test substance to the lower chamber only, and chemokinesis by adding test substance to both upper and lower chambers. […] Similarly, the chemotactic migration of RET/GFRα1co-expressing MDCK cells is stimulated by GDNF in the presence of soluble GFRα1 (Tang et al., 1998).
# [2] = tested on: GFRα1-expressing, RET-deficient MDCK cells; experiment: Boyden chamber cell migration and chemotaxis assay; format: cell-based, dog
# Method: as §1, §2, §3
# [3] = GDNF 100 ng/ml added to both chambers
molecule,measurement,setting,value
B1,chemotactic migration,"[1]; Boyden chamber, 48 h",induced chemotactic migration
same,migration with ligand in both chambers compared to the maximal chemotactic response (chemokinesis),[1]; [3],reduced threefold
same,chemotactic response,"[2]; Boyden chamber, 48 h",did not demonstrate a chemotactic response
same,migration with ligand in both chambers (chemokinesis),[2]; [3],only slightly reduced
